± gives the standard deviation of the averaged measurements.
Experiments:
[1] = system: Saccharomyces cerevisiae; assay: protein stability index of tFT-peptide fusion (C-terminal peptide) (PSI (0-1 scale)); higher = more stable (slower turnover)
Method: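 MPS profiling in S. cerevisiae of the tFT-X12 degron library: putative degron peptides plus stable controls, 12 aa, fused to the C-terminus of a sfGFP-mCherry timer. Cells are FACS-sorted into 8 mCherry/sfGFP bins and deep-sequenced. PSI runs from 0 (unstable) to 1 (stable). Backgrounds are wild type, das1Δ and doa10Δ at 30 °C, and wild type, das1Δ, cdc34-1 and cdc53-1 at 37 °C; 2-3 technical replicates each.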

[2] = system: Saccharomyces cerevisiae; assay: as above; conditions: genetic background: wild type; temperature: 30 C
[3] = genetic background: cdc34-1, temperature: 37 C
[4] = genetic background: cdc53-1, temperature: 37 C
[5] = genetic background: das1 deletion, temperature: 30 C
[6] = genetic background: das1 deletion, temperature: 37 C
[7] = genetic background: doa10 deletion, temperature: 30 C
[8] = genetic background: wild type, temperature: 30 C
[9] = genetic background: wild type, temperature: 37 C
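Further: PSI is a weighted mean of sequencing reads over stability bins, variants kept only with over 10 reads, mCherry proximal and sfGFP distal, peptide attached via GGGS linker.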

Sequence	protein stability index [1, 3]	protein stability index [1, 4]	protein stability index [1, 5]	protein stability index [1, 6]	protein stability index [1, 7]	protein stability index [1, 8]	protein stability index [1, 9]	protein stability index [2]
LSPYPLTFLFSQ	0.693 ± 0.07	0.7506 ± 0.0056	0.648 ± 0.014	0.742 ± 0.0096	0.365 ± 0.014	0.393 ± 0.043	0.61752 ± 0.00015	0.51 ± 0.042
LSWWCFLVLLHW	0.172 ± 0.0081	0.14 ± 0.044	0.232 ± 0.026	0.323 ± 0.021	0.262 ± 0.017	0.202 ± 0.016	0.268 ± 0.012	0.302 ± 0.094
LTPKRLTVCRLC	0.553 ± 0.066	0.758 ± 0.012	0.688 ± 0.01	0.7862 ± 0.0057	0.306 ± 0.019	0.318 ± 0.008	0.628 ± 0.066	0.512 ± 0.079
LVACLGYAVYCL	0.529 ± 0.042	0.557 ± 0.03	0.402 ± 0.024	0.573 ± 0.0087	0.369 ± 0.015	0.394 ± 0.017	0.5568 ± 0.0018	0.46 ± 0.012
LVCFFLFSLFYL	0.433 ± 0.02	0.479 ± 0.018	0.335 ± 0.028	0.5331 ± 0.0039	0.357 ± 0.015	0.358 ± 0.029	0.5098 ± 0.0013	0.386 ± 0.037
LVFCFRSLFLCS	0.57 ± 0.057	0.603 ± 0.0097	0.542 ± 0.012	0.6784 ± 0.0048	0.254 ± 0.014	0.243 ± 0.019	0.39121 ± 0.00016	0.34 ± 0.022
LVFRIRNANRLV	0.615 ± 0.046	0.7144 ± 0.0041	0.6418 ± 0.0024	0.728 ± 0.024	0.127 ± 0.015	0.164 ± 0.026	0.314 ± 0.03	0.309 ± 0.014
LVFSVIPVLFVL	0.454 ± 0.011	0.474 ± 0.025	0.355 ± 0.015	0.528 ± 0.017	0.328 ± 0.015	0.318 ± 0.022	0.461 ± 0.027	0.419 ± 0.087
LVGTRTIFCFLH	0.618 ± 0.017	0.721 ± 0.0084	0.57 ± 0.018	0.741 ± 0.027	0.207 ± 0.0076	0.218 ± 0.026	0.401 ± 0.0054	0.3164 ± 0.002
LVGWSWAACWLA	0.522 ± 0.057	0.608 ± 0.029	0.58 ± 0.024	0.712 ± 0.019	0.292	0.298 ± 0.012	0.396 ± 0.012	0.408 ± 0.016
LVILRCAFPVYG	0.469 ± 0.011	0.529 ± 0.0084	0.339 ± 0.03	0.538 ± 0.009	0.298 ± 0.014	0.332 ± 0.043	0.51345 ± 9.4e-05	0.3963 ± 0.00083
LVLFVCFSLFMR	0.153 ± 0.0065	0.166 ± 0.037	0.189 ± 0.019	0.291 ± 0.012	0.219 ± 0.0087	0.168 ± 0.022	0.2732 ± 0.00043	0.309 ± 0.058
LVLPAFLLLLYP	0.2108 ± 0.0018	0.183 ± 0.022	0.307 ± 0.034	0.4212 ± 0.0012	0.509 ± 0.023	0.309 ± 0.028	0.367 ± 0.0037	0.4134 ± 0.0013
LVLVLAVFGCHD	0.397 ± 0.022	0.543 ± 0.079	0.305 ± 0.03	0.563 ± 0.02	0.284 ± 0.014	0.319 ± 0.036	0.477 ± 0.024	0.42 ± 0.061
LVNSPSISSLWL	0.695 ± 0.019	0.736 ± 0.034	0.688 ± 0.015	0.746 ± 0.0087	0.6786 ± 0.0038	0.691 ± 0.018	0.719 ± 0.008	0.586 ± 0.22
LVSLLYFIVSLF	0.516 ± 0.013	0.579 ± 0.033	0.473 ± 0.0089	0.566 ± 0.031	0.241 ± 0.018	0.254 ± 0.011	0.323 ± 0.014	0.311 ± 0.007
LVTRVFVYFSIG	0.498 ± 0.061	0.583 ± 0.035	0.403 ± 0.034	0.554 ± 0.036	0.323 ± 0.0055	0.35 ± 0.034	0.514 ± 0.0066	0.413 ± 0.012
LVVEALFYVLVS	0.036 ± 0.011	0.0563 ± 0.025	0.126 ± 0.025	0.181 ± 0.0096	0.0851 ± 0.0085	0.107 ± 0.021	0.124 ± 0.014	0.219 ± 0.054
LVVFFPVLPIFG	0.504 ± 0.02	0.554 ± 0.0072	0.394 ± 0.027	0.566 ± 0.016	0.383 ± 0.014	0.408 ± 0.0064	0.58 ± 0.077	0.4965 ± 0.0017
LVVRLFVWDVVW	0.34 ± 0.016	0.374 ± 0.028	0.269 ± 0.043	0.473 ± 0.0097	0.224 ± 0.006	0.266 ± 0.028	0.436 ± 0.0076	0.347 ± 0.045

Sequence	protein stability index [1, 3]	protein stability index [1, 4]	protein stability index [1, 5]	protein stability index [1, 6]	protein stability index [1, 7]	protein stability index [1, 8]	protein stability index [1, 9]	protein stability index [2]
LWAVGWIIYFIV	0.0967 ± 0.0059	0.245 ± 0.014	0.211 ± 0.028	0.362 ± 0.0042	0.106 ± 0.026	0.106 ± 0.011	0.0941 ± 0.006	0.172 ± 0.024
LWLISTYQLIGI	0.454 ± 0.021	0.583 ± 0.048	0.433 ± 0.011	0.5727 ± 0.0033	0.431 ± 0.022	0.451 ± 0.0091	0.536 ± 0.034	0.521 ± 0.032
MALAVRVVWCGA	0.179 ± 0.014	0.179 ± 0.024	0.204 ± 0.034	0.328 ± 0.0034	0.173 ± 0.0053	0.207 ± 0.025	0.295 ± 0.0084	0.269 ± 0.014
MCFFVFVLFLFC	0.307 ± 0.034	0.398 ± 0.12	0.281 ± 0.029	0.406 ± 0.013	0.2977 ± 0.0013	0.269 ± 0.033	0.377 ± 0.011	0.33 ± 0.015
MLVWCLFWVACV	0.203 ± 0.026	0.29 ± 0.0085	0.22 ± 0.028	0.355 ± 0.01	0.148 ± 0.011	0.168 ± 0.025	0.258 ± 0.0057	0.236 ± 0.0031
MRMEGPLALSVR	0.5519 ± 0.005	0.558 ± 0.016	0.395 ± 0.028	0.558 ± 0.0087	0.353 ± 0.019	0.403 ± 0.017	0.551 ± 0.006	0.48 ± 0.011
MRVCLCLMLIVN	0.179 ± 0.024	0.282 ± 0.031	0.214 ± 0.018	0.372 ± 0.0069	0.143 ± 0.022	0.148 ± 0.028	0.238 ± 0.0029	0.238 ± 0.033
NARNPKKNRDQI	0.697 ± 0.037	0.7226 ± 0.0072	0.627 ± 0.026	0.705 ± 0.032	0.633 ± 0.02	0.666 ± 0.058	0.70322 ± 0.00025	0.524 ± 0.093
NFFYLFLSFGFG	0.523 ± 0.076	0.565 ± 0.034	0.48 ± 0.025	0.588 ± 0.0086	0.46 ± 0.029	0.482 ± 0.03	0.552 ± 0.0068	0.436 ± 0.022
NGSCRVVMYIKG	0.667 ± 0.014	0.731 ± 0.022	0.592 ± 0.025	0.717 ± 0.014	0.588 ± 0.027	0.61 ± 0.0079	0.662 ± 0.017	0.552 ± 0.08
NKEEHQQKQRIH	0.636 ± 0.04	0.711 ± 0.02	0.663 ± 0.02	0.719 ± 0.031	0.619 ± 0.057	0.646 ± 0.049	0.698 ± 0.00079	0.461 ± 0.15
NKTTKNKKRKLS	0.467 ± 0.081	0.612 ± 0.048	0.697 ± 0.027	0.656 ± 0.0059	0.0924 ± 0.038	0.125 ± 0.067	0.173 ± 0.011	0.159 ± 0.014
NKYNQFKWHINH	0.624 ± 0.12	0.698 ± 0.014	0.624 ± 0.026	0.742 ± 0.019	0.134 ± 0.034	0.136 ± 0.0086	0.295 ± 0.031	0.295 ± 0.0036
NRLHYSPLYTIY	0.641 ± 0.087	0.735 ± 0.033	0.653 ± 0.0076	0.753 ± 0.0065	0.111 ± 0.011	0.153 ± 0.015	0.256 ± 0.0026	0.239 ± 0.0099
NSFASFVVVFVI	0.371 ± 0.018	0.437 ± 0.047	0.264 ± 0.034	0.512 ± 0.015	0.1956 ± 0.00071	0.227 ± 0.036	0.472 ± 0.03	0.34 ± 0.036
NTDRRNICKISS	0.493 ± 0.031	0.671 ± 0.059	0.631 ± 0.02	0.733 ± 0.0086	0.105 ± 0.0079	0.1084 ± 0.00051	0.169 ± 0.0083	0.163 ± 0.044
NTREGFIILARA	0.523 ± 0.014	0.537 ± 0.018	0.369 ± 0.03	0.573 ± 0.022	0.296 ± 0.0041	0.349 ± 0.066	0.5303 ± 0.0025	0.529 ± 0.065
PACFPPPSPFAP	0.643 ± 0.056	0.741 ± 0.026	0.712 ± 0.015	0.7326 ± 0.0022	0.718 ± 0.019	0.696 ± 0.029	0.725 ± 0.022	0.44 ± 0.034
PFDTPSHPNPLF	0.707 ± 0.034	0.789 ± 0.086	0.69 ± 0.026	0.777 ± 0.024	0.711 ± 0.026	0.729 ± 0.014	0.762 ± 0.019	0.744 ± 0.037
